Source: article PMC11623929

Target: WDR5-Luc-FKBP12

decrease of luciferase activity of the WDR5 fusion in HEK293 cells, rapamycin overnight, 10- or 100-fold excess of the VHL-FRB plasmid (bridged by rapamycin): 50.2%
Substance: VHL-FRB (from UniProt P42345 2019-2112)
